Experiments:
[1] = normal and diabetic rats; retention of immunoreactivity sRAGE; cited from earlier work
[2] = cited from earlier work
APP transgenic mice = assay: Mouse model of AD (APP transgenic mice); assay type: in vivo; conditions: treated for 3 months, versus vehicle and human IgG1
Description: Experiments were performed to evaluate whether TTP-4000 could affect amyloid formation and cognitive dysfunction in a mouse model of AD. The experiments utilized transgenic mice expressing the human Swedish mutant amyloid precursor protein (APP) under the control of the PDGF-B chain promoter. Over time, these mice generate high levels of the RAGE ligand, amyloid beta (Aβ).
The APP mice (male) used in this experiment were designed by microinjection of the human APP gene (with the Swedish and London mutations) into mouse eggs under the control of the platelet-derived growth factor B (PDGF-B) chain gene promoter. The mice were generated on a C57BL/6 background and were developed by Molecular Therapeutics Inc. Animals were fed ad libituin and maintained by brother sister mating. The mice generated from this construct develop amyloid deposits starting at 6 months of age. Animals were aged for 6 months and then maintained for 90 days and sacrificed for amyloid quantification.
APP transgenic mice were administered vehicle or TTP4000 every other day [qod (i.p.)] for 90 days starting at 6 months of age. At the end of the experiment, animals were sacrificed and examined for AP plaque burden in the brain (i.e., plaque number). A 6-month control APP group was used to determine the baseline of amyloid deposits. In addition, at the end of the study, the animals were subjected to behavioral (Morris water maze) analysis. The investigators were blinded to the study compounds. Samples were given to the mice at 0.25 ml/mouse/every other day.
For histological examination, the animals were anesthetized with an intraperitoneal injection (IP) of sodium pentobarbital (50 mg/kg). The animals were transcardially perfused with 4° C., phosphate-buffered saline (PBS) followed by 4% paraformaldehyde. The brains were removed and placed in 4% paraformaldehyde over night. The brains were processed to paraffin and embedded. Ten serial 30-μm thick sections through the brain were obtained. Sections were subjected to primary antibody overnight at 4° C. (Aβ peptide antibody) in order to detect the amyloid deposits in the brain of the transgenic animals (Guo et al., J. Neurosci., 22:5900-5909 (2002)). Sections were washed in Tris-buffered saline (TBS) and secondary antibody was added and incubated for 1 hour at room temperature. After washing, the sections were incubated as instructed in the Vector ABC Elite kit (Vector Laboratories) and stained with […] (DAB). The reactions were stopped in water and cover-slipped after treatment with xylene. The amyloid area in each section was determined with a computer-assisted image analysis system, consisting of a Power Macintosh computer equipped with a Quick Capture frame grabber card, Hitachi CCD camera mounted on an Olympus microscope and camera stand. NIH Image Analysis Software, v. 1.55 was used. The images were captured and the total area of amyloid was determined over the ten sections. A single operator blinded to treatment status performed all measurements. Summing the amyloid volumes of the sections and dividing by the total number of sections was done to calculate the amyloid volume.
For quantitative analysis, an enzyme-linked immunosorbent assay (ELISA) was used to measure the levels of human total Aβ, Aβtotal and Aβ1-42 in the brains of APP transgenic mice (Biosource International., Camarillo, Calif.). Aβtotal and Aβ1-42 were extracted from mouse brains by guanidine hydrochloride and quantified as described by the manufacturer. […]

S100b (S100) = biological target: T1, S100b (S100) (Homo sapiens, UniProt P04271); assay: In vitro ligand binding ELISA, immobilized S100b; conditions: various dilutions of fusion protein; FIG. 7
T1 sequence (P04271 1-92): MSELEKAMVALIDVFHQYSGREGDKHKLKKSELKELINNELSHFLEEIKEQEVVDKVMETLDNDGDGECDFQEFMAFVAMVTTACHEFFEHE
Description: (§1) For example, the RAGE fusion protein may be used in a binding assay to identify potential RAGE ligands. In one example embodiment of such a binding assay, a known RAGE ligand may coated onto a solid substrate (e.g., Maxisorb plates) at a concentration of about 5 micrograms per well, where each well contains a total volume of about 100 microliters (μL). The plates may be incubated at 4° C. overnight to allow the ligand to absorb. Alternatively, shorter incubation periods at higher temperature (e.g., room temperature) may be used. […] The fusion protein bound to the immobilized ligand may be detected in a variety of ways. […] The bound complex may be detected by adding the alkaline phosphatase substrate, para-nitrophenylphosphate (PNPP), and measuring conversion of PNPP to para-nitrophenol (PNP) as an increase in absorbance at 405 nm. […] Binding was detected by the addition of an immunodetection complex containing a monoclonal mouse anti-human IgG1 diluted 1:11,000 to a final assay concentration (FAC) of 21 ng/100 μL, a biotinylated goat anti-mouse IgG diluted 1:500, to a FAC of […], and an avidin-linked alkaline phosphatase. […] Binding of the complex to the immobilized fusion protein was quantified by measuring conversion of PNPP to para-nitrophenol (PNP) which was-measured spectrophotornetrically at 405 nm. […]

amphoterin (Ampho) = biological target: T2, amphoterin (Ampho) (Homo sapiens, UniProt P09429); assay: In vitro ligand binding ELISA, immobilized amphoterin; conditions: various dilutions of fusion protein; FIG. 7
T2 sequence (P09429 1-215): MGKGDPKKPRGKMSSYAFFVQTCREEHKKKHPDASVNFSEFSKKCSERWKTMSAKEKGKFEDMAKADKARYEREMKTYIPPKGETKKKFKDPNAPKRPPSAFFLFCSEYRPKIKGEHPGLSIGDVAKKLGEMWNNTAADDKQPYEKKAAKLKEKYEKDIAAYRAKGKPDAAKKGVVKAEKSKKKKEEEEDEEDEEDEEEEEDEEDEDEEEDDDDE
Description: as §1

amyloid-beta (Abeta) = biological target: T3, amyloid-beta (Abeta) (Homo sapiens, UniProt P05067); assay: In vitro ligand binding ELISA, immobilized amyloid-beta; conditions: various dilutions of fusion protein; FIG. 7
T3 construct: Amyloid Beta (1-40) from Biosource; purchased Biosource
Description: as §1

T3 sequence (P05067 672-711 limits assumed): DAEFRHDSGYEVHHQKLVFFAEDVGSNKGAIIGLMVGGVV

human sRAGE: human soluble RAGE (e.g., SEQ ID NO: 4) [reference compound]
half-life [1]: less than 2 hours | half-life in plasma [2]: about 2 hours

sRAGE: soluble RAGE: the RAGE protein that does not include the transmembrane region or the cytoplasmic tail [reference compound]
half-life in plasma [2]: only a few hours

B1: rodent sRAGE: rodent soluble RAGE (protein, UniProt Q62151 23-340, looked up)
extracellular domain: GQNITARIGEPLVLSCKGAPKKPPQQLEWKLNTGRTEAWKVLSPQGGPWDSVARILPNGSLLLPATGIVDEGTFRCRATNRRGKEVKSNYRVRVYQIPGKPEIVDPASELTASVPNKVGTCVSEGSYPAGTLSWHLDGKLLIPDGKETLVKEETRRHPETGLFTLRSELTVIPTQGGTHPTFSCSFSLGLPRRRPLNTAPIQLRVREPGPPEGIQLLVEPEGGIVAPGGTVTLTCAISAQPPPQVHWIKDGAPLPLAPSPVLLLPEVGHEDEGTYSCVATHPSHGPQESPPVSIRVTETGDEGPAEGSVGESGLGTLA
modifications: extracellular domain
notes: rodent soluble RAGE
half-life [1]: approximately 20 hours

B2: mouse sRAGE: mouse soluble RAGE used as comparator in the AD mouse model (protein, UniProt Q62151 23-340, looked up)
extracellular domain: B1 extracellular domain
modifications: extracellular domain
notes: mouse soluble RAGE used as comparator in the AD mouse model
Aβ plaques in the brain (APP transgenic mice; FIG. 14A): fewer Aβ plaques | cognitive dysfunction (Morris water maze) (APP transgenic mice; FIG. 14B): less cognitive dysfunction

B3: TTP-3000: three domain RAGE fusion protein (SEQ ID NO: 35): human RAGE amino acids 1-136 linked to CH2 and CH3 domains of human IgG (protein)
chain: MAAGTAVGAWVLVLSLWGAVVGAQNITARIGEPLVLKCKGAPKKPPQRLEWKLNTGRTEAWKVLSPQGGGPWDSVARVLPNGSLFLPAVGIQDEGIFRCQAMNRNGKETKSNYRVRVYQIPGKPEIVDSASELTAGPSVFLFPPKPKDTLMISRTPEVTCVVVDVSHEDPEVKFNWYVDGVEVHNAKTKPREEQYNSTYRVVSVLTVLHQDWLNGKEYKCKVSNKALPAPIEKTISKAKGQPREPQVYTLPPSRDELTKNQVSLTCLVKGFYPSDIAVEWESNGQPENNYKTTPPVLDSDGSFFLYSKLTVDKSRWQQGNVFSCSVMHEALHNHYTQKSLSLSPGK
binding to immobilized S100b (absorbance at 405 nm) (S100b (S100)): specifically interact | binding to immobilized amphoterin (absorbance at 405 nm) (amphoterin (Ampho)): specifically interact | binding to immobilized amyloid-beta (absorbance at 405 nm) (amyloid-beta (Abeta)): specifically interact
